The target of assay [1] is FasLigand (monomer) (Homo sapiens (Human)) (UniProt P48023). The assay can be described thus: SPR (Biacore 2000), FasL amine-coupled to CM5 chip, Fas in solution.
Assay [2] addresses T1, FLINT (FAS Ligand Inhibitory Protein), mature human FLINT (human, UniProt O95407 30-300).
T1 construct: also called mature FLINT; native FLINT
T1 sequence: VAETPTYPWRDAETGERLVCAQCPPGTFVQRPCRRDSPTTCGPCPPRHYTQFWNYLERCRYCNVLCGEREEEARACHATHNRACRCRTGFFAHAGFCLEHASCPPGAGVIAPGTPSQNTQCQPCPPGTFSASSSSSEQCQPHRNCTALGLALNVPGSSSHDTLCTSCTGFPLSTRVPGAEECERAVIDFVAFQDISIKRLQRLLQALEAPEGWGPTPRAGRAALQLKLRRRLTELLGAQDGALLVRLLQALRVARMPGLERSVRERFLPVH
The assay can be described thus: SPR (Biacore 2000), FasL amine-coupled to CM5 chip, FLINT in solution. (Surface plasmon resonance follows binding to a sensor surface in real time, without labels.)

“Fas/Fc chimera (R&D Systems) (Fc fusion)” yielded a Kd in assay [1] of 162 nM.

B1: FasLigand (monomer) (ligand)
chain: QLFHLQKELAELRESTSQMHTASSLEKQIGHPSPPPEKKELRKVAHLTGKSNSRSMPLEWEDTYGIVLLSGVKYKKGGLVINETGLYFVYSKVYFRGQSCNNLPLSHKVYMRNSKYPQDLVMMEGKMMSYCTTGQMWARSSYLGAVFNLTSADHLYVNVSELSLVNFEESQTFFGLYKL
modifications: Amine-coupled through lysines to a CM5 chip.
notes: Amine-coupled to a CM5 chip; also called Fas Ligand (Kamiya Biomedical Company)
For the molecule B1, in assay [2], the Kd turned out to be 113 nM.

By Kd is commonly meant the equilibrium constant for the complex coming apart. Low readings indicate tighter binding, high ones weaker binding.

Source of the values: patent EP1165781B1 (ELI LILLY AND COMPANY, dated 2007).
